Assay [1] addresses PACAP27 (human). Description: cell-based or functional assay.
Assay [2] deals with PACAP38 (human). Description: cell-based or functional assay.

The record followed here is patent publication US20200131256A1.

PACAP38 (human), sequence (peptide, as listed by the source): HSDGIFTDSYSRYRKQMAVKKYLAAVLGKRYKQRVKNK
PACAP27 (human), sequence (peptide, as listed by the source): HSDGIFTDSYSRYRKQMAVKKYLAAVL

Consider Control IgG4 antibody, for which, in assay [1], the Percentage Tryptase Release upon addition of PACAP27 (1 uM), human mast cells, negative control antibody is 110% and the Percentage Tryptase Release upon addition of PACAP27 (%), negative control antibody dose 153 uM was determined as 94.8%. In addition, in assay [2], the Percentage Tryptase Release upon addition of PACAP38 (1 uM), human mast cells, negative control antibody amounted to 104% and the Percentage Tryptase Release upon addition of PACAP38 (%), negative control antibody dose 153 uM turned out to be 79.6%.
